Measurements as given in patent US20060063234A1 (CRUCELL HOLLAND B V, published 2006).

Biological target: T1, EpCAM (epithelial cell adhesion molecule), human tumor antigen, on LS174T colon carcinoma cells (human, UniProt P16422 24-314)
T1 sequence (looked up): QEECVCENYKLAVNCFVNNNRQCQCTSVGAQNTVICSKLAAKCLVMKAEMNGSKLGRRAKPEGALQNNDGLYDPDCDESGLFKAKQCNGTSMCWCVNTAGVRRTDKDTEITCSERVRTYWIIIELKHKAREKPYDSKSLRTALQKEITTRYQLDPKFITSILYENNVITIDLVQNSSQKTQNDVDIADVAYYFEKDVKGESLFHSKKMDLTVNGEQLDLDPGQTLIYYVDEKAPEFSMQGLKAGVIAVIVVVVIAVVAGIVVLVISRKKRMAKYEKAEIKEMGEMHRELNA
Test: cell-based or functional assay

B1: anti-EpCAM IgM (PER.C6 produced recombinant human IgM, encoded by pEpcamIgM) (antibody)
light: QVQLVQSGAEVKKPGSSVRVSCKASGGTFSSYAISWVRQAPGQGLEWMGGIIPIFGTANYAQKFQGRVTITADESTSTAYMELSSLRSEDTAVYYCARDPFLHYWGQGTLVTVSTGSASAPTLFPLVSCENSPSDTSSVAVGCLAQDFLPDSITFSWKYKNNSDISSTRGFPSVLRGGKYAATSQVLLPSKDVMQGTDEHVVCKVQHPNGNKEKNVPLPVIAELPPKVSVFVPPRDGFFGNPRKSKLICQATGFSPRQIQVSWLREGKQVGSGVTTDQVQAEAKESGPTTYKVTSTLTIKESDWLSQSMFTCRVDHRGLTFQQNASSMCVPDQDTAIRVFAIPPSFASIFLTKSTKLTCLVTDLTTYDSVTISWTRQNGEAVKTHTNISESHPNATFSAVGEASICEDDWNSGERFTCTVTHTDLPSPLKQTISRPKGVALHRPDVYLLPPAREQLNLRESATITCLVTGFSPADVFVQWMQRGQPLSPEKYVTSAPMPEPQAPGRYFAHSILTVSEEEWNTGETYTCVVAHEALPNRVTERTVDKSTGKPTLYNVSLVMSDTAGTCY
heavy: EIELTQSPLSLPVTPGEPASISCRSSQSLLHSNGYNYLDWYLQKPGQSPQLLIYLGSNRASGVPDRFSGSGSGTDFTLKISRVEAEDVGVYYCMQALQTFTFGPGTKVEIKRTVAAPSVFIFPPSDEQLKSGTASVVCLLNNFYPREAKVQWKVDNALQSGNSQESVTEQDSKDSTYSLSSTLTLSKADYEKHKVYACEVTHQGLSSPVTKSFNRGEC
complement dependent cytotoxicity on LS174T cells: potency relative to anti-EpCAM IgG: ~10 fold
